Earlier results, collected in PMC8969216.

Target: SLAMF1 (Homo sapiens) (UniProt Q13291)

Kd: 200 µM
Substance: SLAMF1 (from UniProt Q13291)
